From PMC5292672

Molecular target: herpes virus entry mediator (HVEM) (human (endogenous in monocyte‐derived macrophages)) (UniProt Q92956)
UniProt Q92956, sequence (Q92956 39-283): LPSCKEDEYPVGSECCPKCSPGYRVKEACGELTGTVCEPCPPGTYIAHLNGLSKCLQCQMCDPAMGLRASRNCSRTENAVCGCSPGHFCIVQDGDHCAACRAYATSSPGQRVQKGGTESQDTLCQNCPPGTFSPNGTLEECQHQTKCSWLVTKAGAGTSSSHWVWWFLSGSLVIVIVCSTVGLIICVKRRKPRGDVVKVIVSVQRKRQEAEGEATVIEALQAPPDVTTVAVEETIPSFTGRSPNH

Substance | decrease of staurosporin-induced caspase-3 activity in primary macrophages exposed before to HSV-1 gD, against staurosporin alone [%] | decrease of staurosporin-induced caspase-3 activity in primary macrophages exposed before to CyPB, against staurosporin alone [%]
recombinant His‐tagged HSV‐1 gD (glycoprotein D of herpes simplex virus‐1) (from UniProt Q69091 26-394) (natural protein) | 75 | –
recombinant human cyclophilin B (from UniProt P23284 34-216) (natural protein) | – | 75
